The values below come from US20180371095A1 (published 2018).

The test addresses T1, HEK293 cells transfected with recombinant human VSIG3-eGFP (human, UniProt Q5DX21 23-431).
T1 construct: whole, on cells; not shown: eGFP
T1 sequence (looked up): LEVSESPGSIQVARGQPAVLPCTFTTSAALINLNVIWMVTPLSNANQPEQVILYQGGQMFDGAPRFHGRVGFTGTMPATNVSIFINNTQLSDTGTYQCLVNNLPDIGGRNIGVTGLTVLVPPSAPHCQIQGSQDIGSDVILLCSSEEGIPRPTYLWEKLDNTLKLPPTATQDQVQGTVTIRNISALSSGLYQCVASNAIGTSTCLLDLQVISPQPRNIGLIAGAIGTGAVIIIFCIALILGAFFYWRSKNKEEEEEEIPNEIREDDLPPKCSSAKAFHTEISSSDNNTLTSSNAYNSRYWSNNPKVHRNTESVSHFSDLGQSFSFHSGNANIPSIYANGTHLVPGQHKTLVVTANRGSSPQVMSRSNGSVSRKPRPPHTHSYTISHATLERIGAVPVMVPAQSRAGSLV
Kind of test: flow cytometry, anti-Fc APC detection. Background: Flow cytometry measures light scatter and fluorescence of single cells or particles in a stream.

B1: recombinant human Siglec-7 (rhSiglec-7)/Fc protein (Fc fusion, UniProt Q9Y286 19-357, looked up)
chain: QKSNRKDYSLTMQSSVTVQEGMCVHVRCSFSYPVDSQTDSDPVHGYWFRAGNDISWKAPVATNNPAWAVQEETRDRFHLLGDPQTKNCTLSIRDARMSDAGRYFFRMEKGNIKWNYKYDQLSVNVTALTHRPNILIPGTLESGCFQNLTCSVPWACEQGTPPMISWMGTSVSPLHPSTTRSSVLTLIPQPQHHGTSLTCQVTLPGAGVTTNRTIQLNVSYPPQNLTVTVFQGEGTASTALGNSSSLSVLEGQSLRLVCAVDSNPPARLSWTWRSLTLYPSQPSNPLVLELQVHLGDEGEFTCRAQNSLGSQHVSLNLSLQQEYTGKMRPVSGVLLGAVG
notes: also called Fc-tagged Siglec7 protein; human Siglec-7 Fc protein; not shown: human IgG Fc region
Regarding B1, the binding result is given as “no binding”.
